Data on 1 protein can be found in article PMC7382501 (Nature Communications, 2020).

The data set concerns the molecule itself. Nature of the data set: crystal structure.

B1: FasRΔ33, truncated FasR lacking the first 33 amino acids (domain or fragment)
chain: RLPRDERRGQLLVVASDVFVDRGYHAAGMDEIADRAGVSKPVLYQHFSSKLELYLAVLHRHVENLVSGVHQALSTTTDNRQRLHVAVQAFFDFIEHDSQGYRLIFENDFVTEPEVAAQVRVATESCIDAVFALISADSGLDPHRARMIAVGLVGMSVDCARYWLDADKPISKSDAVEGTVQFAWGGLSHVPLTRS
Turning to B1, the stoichiometry N (usually a count of units in the complex or per binding partner) worked out at 2.
